# Biological target: T1, TON_1525 wild-type (putative transcriptional regulator) (Thermococcus onnurineus NA1) (UniProt B6YTS4)
# T1 sequence: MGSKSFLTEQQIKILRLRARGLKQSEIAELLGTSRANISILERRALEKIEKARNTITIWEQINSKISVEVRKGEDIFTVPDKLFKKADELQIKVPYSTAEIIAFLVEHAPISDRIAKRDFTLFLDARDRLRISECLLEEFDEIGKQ
# Assay: EMSA
# Settings: EMSA: 100 nM DNA, 20 mM Tris-HCl, 200 mM KCl, 1 mM EDTA, 5% glycerol, pH 7.5, 80 C for 10 min; 5% native PAGE
sequence,measurement,value
GAGAGTTTTACTGTCTCTAAATGAAAGGTTCTAATACGGTGGATCGAATAATTTCTTGCGTTTTTATCCGGATCGCCGAACACGATTCCATCTTAAAATCTTTTTGTTTACATTATACGAGGTGATCAACAATGCCAGCTTTTTCCGGTT (double strand) [CODH promoter 150-bp probe],binding,binds

# Source: paper PMC4791640
